Measured values as given in patent US20230002480A1.

How the values were obtained:
Assay in all cases: cell-based or functional assay
[1] = biological target: HIV-1 Env of pseudovirus HIV-16845-2.22 (HIV-1)
[2] = biological target: HIV-1 Env of pseudovirus ZM247v1(Rev-) (HIV-1)
[3] = biological target: HIV-1 Env of pseudovirus BJOX028000.10.3 (HIV-1)
[4] = biological target: HIV-1 Env of pseudovirus TRO.11 (HIV-1)
[5] = biological target: HIV-1 Env of pseudovirus 7030102001E5(Rev-) (HIV-1)
[6] = biological target: HIV-1 Env of pseudovirus WEAU_d15_410_787 (HIV-1)
[7] = biological target: HIV-1 Env of pseudovirus 231965.c01 (HIV-1)
[8] = biological target: HIV-1 Env of pseudovirus Q461.e2 (HIV-1)
[9] = biological target: HIV-1 Env of pseudovirus RHPA4259.7 (HIV-1)
[10] = biological target: HIV-1 Env of pseudovirus A07412M1.vrc12 (HIV-1)
[11] = biological target: HIV-1 Env of pseudovirus 3016.v5.c45 (HIV-1)
[12] = biological target: HIV-1 Env of pseudovirus Q259.d2.17 (HIV-1)
[13] = biological target: HIV-1 Env of pseudovirus CAP210.2.00.E8 (HIV-1)
[14] = biological target: HIV-1 Env of pseudovirus CNE52 (HIV-1)
[15] = biological target: HIV-1 Env of pseudovirus Ce0393_C3 (HIV-1)
[16] = biological target: HIV-1 Env of pseudovirus R2184.c04 (HIV-1)
[17] = biological target: HIV-1 Env of pseudovirus AC10.0.29 (HIV-1)
[18] = biological target: HIV-1 Env of pseudovirus MS208.A1 (HIV-1)
[19] = biological target: HIV-1 Env of pseudovirus HIV-001428-2.42 (HIV-1)
[20] = biological target: HIV-1 Env of pseudovirus ZM249M.PL1 (HIV-1)
[21] = biological target: HIV-1 Env of pseudovirus 6535.3 (HIV-1)
[22] = biological target: HIV-1 Env of pseudovirus Ce1176_A3 (HIV-1)
[23] = biological target: HIV-1 Env of pseudovirus WITO4160.33 (HIV-1)
[24] = biological target: HIV-1 Env of pseudovirus 6240_08_TA5_4622 (HIV-1)
[25] = biological target: HIV-1 Env of pseudovirus X2131_C1_B5 (HIV-1)
[26] = biological target: HIV-1 Env of pseudovirus 6545.v4.c1 (HIV-1)
[27] = biological target: HIV-1 Env of pseudovirus REJO4541.67 (HIV-1)
[28] = biological target: HIV-1 Env of pseudovirus Ce1172_H1 (HIV-1)
[29] = biological target: HIV-1 Env of pseudovirus Ce2060_G9 (HIV-1)
[30] = biological target: HIV-1 Env of pseudovirus X1254_c3 (HIV-1)
[31] = biological target: HIV-1 Env of pseudovirus Ce703010054_2A2 (HIV-1)
[32] = biological target: HIV-1 Env of pseudovirus CNE17 (HIV-1)
[33] = biological target: HIV-1 Env of pseudovirus CNE21 (HIV-1)
[34] = biological target: HIV-1 Env of pseudovirus CAAN5342.A2 (HIV-1)
[35] = biological target: HIV-1 Env of pseudovirus P1981_C5_3 (HIV-1)
[36] = biological target: HIV-1 Env of pseudovirus 89-F1_2_25 (HIV-1)
[37] = biological target: HIV-1 Env of pseudovirus T255-34 (HIV-1)

## PGT151 (antibody)
[1]
  IC50: > 50 µg/mL
  IC80: > 50 µg/mL
[2]
  IC50: 0.009 µg/mL
  IC80: > 50 µg/mL
[3]
  IC50, titer in TZM.bl cells: > 50 µg/mL
  IC80, titer in TZM.bl cells: > 50 µg/mL
[4]
  IC50: > 50 µg/mL
  IC80: > 50 µg/mL
[5]
  IC50: 0.001 µg/mL
  IC80: 0.011 µg/mL
[6]
  IC50: 0.01 µg/mL
  IC80: > 50 µg/mL
[7]
  IC50, titer in TZM.bl cells: < 0.001 µg/mL
  IC80, titer in TZM.bl cells: 0.012 µg/mL
[8]
  IC50: 12.6 µg/mL
  IC80: > 50 µg/mL
[9]
  IC50: 0.006 µg/mL
  IC80: 0.033 µg/mL
[10]
  IC50, titer in TZM.bl cells: 0.246 µg/mL
  IC80, titer in TZM.bl cells: > 50 µg/mL
[11]
  IC50, titer in TZM.bl cells: 0.174 µg/mL
  IC80, titer in TZM.bl cells: 40.7 µg/mL
[12]
  IC50: > 50 µg/mL
  IC80: > 50 µg/mL
[13]
  IC50: 0.01 µg/mL
  IC80: 0.208 µg/mL
[14]
  IC50: 0.004 µg/mL
  IC80: 0.017 µg/mL
[15]
  IC50: > 50 µg/mL
  IC80: > 50 µg/mL
[16]
  IC50, titer in TZM.bl cells: > 50 µg/mL
  IC80, titer in TZM.bl cells: > 50 µg/mL
[17]
  IC50: 0.007 µg/mL
  IC80: 0.023 µg/mL
[18]
  IC50: < 0.001 µg/mL
  IC80: 0.003 µg/mL
[19]
  IC50: 0.027 µg/mL
  IC80: > 50 µg/mL
[20]
  IC50: 0.004 µg/mL
  IC80: 0.015 µg/mL
[21]
  IC50: < 0.001 µg/mL
  IC80: 0.012 µg/mL
[22]
  IC50: 0.006 µg/mL
  IC80: 0.018 µg/mL
[23]
  IC50: 0.002 µg/mL
  IC80: 0.021 µg/mL
[24]
  IC50: 0.046 µg/mL
  IC80: 0.42 µg/mL
[25]
  IC50, titer in TZM.bl cells: 0.007 µg/mL
  IC80, titer in TZM.bl cells: 0.036 µg/mL
[26]
  IC50, titer in TZM.bl cells: 0.004 µg/mL
  IC80, titer in TZM.bl cells: 0.026 µg/mL
[27]
  IC50: 0.018 µg/mL
  IC80: 0.119 µg/mL
[28]
  IC50: > 50 µg/mL
  IC80: > 50 µg/mL
[29]
  IC50: 0.135 µg/mL
  IC80: > 50 µg/mL
[30]
  IC50, titer in TZM.bl cells: 0.309 µg/mL
  IC80, titer in TZM.bl cells: > 50 µg/mL
[31]
  IC50: 0.013 µg/mL
  IC80: 0.075 µg/mL
[32]
  IC50: 0.093 µg/mL
  IC80: > 50 µg/mL
[33]
  IC50: 0.004 µg/mL
  IC80: 0.012 µg/mL
[34]
  IC50: 0.005 µg/mL
  IC80: 0.038 µg/mL
[35]
  IC50, titer in TZM.bl cells: 0.021 µg/mL
  IC80, titer in TZM.bl cells: > 50 µg/mL
[36]
  IC50, titer in TZM.bl cells: 22.9 µg/mL
  IC80, titer in TZM.bl cells: > 50 µg/mL
[37]
  IC50, titer in TZM.bl cells: 0.002 µg/mL
  IC80, titer in TZM.bl cells: 0.01 µg/mL

## VRC07 (antibody)
[1]
  neutralization IC50: 1.21 µg/mL
  neutralization IC80: 6.15 µg/mL
[2]
  neutralization IC50: 0.041 µg/mL
  neutralization IC80: 0.189 µg/mL
[3]
  IC50, titer in TZM.bl cells: 0.011 µg/mL
  IC80, titer in TZM.bl cells: 0.069 µg/mL
[4]
  neutralization IC50: 0.132 µg/mL
  neutralization IC80: 0.456 µg/mL
[5]
  neutralization IC50: 0.205 µg/mL
  neutralization IC80: 0.911 µg/mL
[6]
  neutralization IC50: 0.034 µg/mL
  neutralization IC80: 0.115 µg/mL
[7]
  IC50, titer in TZM.bl cells: 0.085 µg/mL
  IC80, titer in TZM.bl cells: 0.263 µg/mL
[8]
  neutralization IC50: 0.282 µg/mL
  neutralization IC80: 1.02 µg/mL
[9]
  neutralization IC50: 0.017 µg/mL
  neutralization IC80: 0.048 µg/mL
[10]
  IC50, titer in TZM.bl cells: 0.11 µg/mL
  IC80, titer in TZM.bl cells: 0.353 µg/mL
[11]
  IC50, titer in TZM.bl cells: 0.095 µg/mL
  IC80, titer in TZM.bl cells: 0.392 µg/mL
[12]
  neutralization IC50: 0.024 µg/mL
  neutralization IC80: 0.1 µg/mL
[13]
  neutralization IC50: > 50 µg/mL
  neutralization IC80: > 50 µg/mL
[14]
  neutralization IC50: 0.042 µg/mL
  neutralization IC80: 0.142 µg/mL
[15]
  neutralization IC50: 0.182 µg/mL
  neutralization IC80: 0.634 µg/mL
[16]
  IC50, titer in TZM.bl cells: 0.02 µg/mL
  IC80, titer in TZM.bl cells: 0.104 µg/mL
[17]
  neutralization IC50: 0.282 µg/mL
  neutralization IC80: 0.986 µg/mL
[18]
  neutralization IC50: 0.12 µg/mL
  neutralization IC80: 0.425 µg/mL
[19]
  neutralization IC50: 0.004 µg/mL
  neutralization IC80: 0.016 µg/mL
[20]
  neutralization IC50: 0.041 µg/mL
  neutralization IC80: 0.145 µg/mL
[21]
  neutralization IC50: 0.169 µg/mL
  neutralization IC80: 0.517 µg/mL
[22]
  neutralization IC50: 0.52 µg/mL
  neutralization IC80: 2.6 µg/mL
[23]
  neutralization IC50: 0.042 µg/mL
  neutralization IC80: 0.193 µg/mL
[24]
  neutralization IC50: 0.448 µg/mL
  neutralization IC80: 1.54 µg/mL
[25]
  IC50, titer in TZM.bl cells: 0.219 µg/mL
  IC80, titer in TZM.bl cells: 1.03 µg/mL
[26]
  IC50, titer in TZM.bl cells: > 50 µg/mL
  IC80, titer in TZM.bl cells: > 50 µg/mL
[27]
  neutralization IC50: 0.011 µg/mL
  neutralization IC80: 0.037 µg/mL
[28]
  neutralization IC50: > 50 µg/mL
  neutralization IC80: > 50 µg/mL
[29]
  neutralization IC50: 0.085 µg/mL
  neutralization IC80: 0.422 µg/mL
[30]
  IC50, titer in TZM.bl cells: 0.041 µg/mL
  IC80, titer in TZM.bl cells: 0.2 µg/mL
[31]
  neutralization IC50: 0.19 µg/mL
  neutralization IC80: 0.912 µg/mL
[32]
  neutralization IC50: 0.136 µg/mL
  neutralization IC80: 0.651 µg/mL
[33]
  neutralization IC50: 0.05 µg/mL
  neutralization IC80: 0.222 µg/mL
[34]
  neutralization IC50: 0.307 µg/mL
  neutralization IC80: 1.05 µg/mL
[35]
  IC50, titer in TZM.bl cells: 0.213 µg/mL
  IC80, titer in TZM.bl cells: 0.609 µg/mL
[36]
  IC50, titer in TZM.bl cells: > 50 µg/mL
  IC80, titer in TZM.bl cells: > 50 µg/mL
[37]
  IC50, titer in TZM.bl cells: 0.227 µg/mL
  IC80, titer in TZM.bl cells: 0.987 µg/mL
